# Publication PMC2953525, “Subtle Alterations in PCNA-Partner Interactions Severely Impair DNA Replication and Repair” (PLoS Biology, 2010)
# Positions count from the first letter of the chain named.
# B1: pol30-Rad27L1: PCNA mutant evolved for Rad27, two-residue deletion, IDCL sequence D––VDILKIGEL (protein)
# chain: MLEAKFEEASLFKRIIDGFKDCVQLVNFQCKEDGIIAQAVDDSRVLLVSLEIGVEAFQEYRCDHPVTLGMDLTSLSKILRCGNNTDTLTLIADNTPDSIILLFEDTKKDRIAEYSLKLMDVDILKIGELQYDSTLSLPSSEFSKIVRDLSQLSDSINIMITKETIKFVADGDIGSGSVIIKPFVDMEHPETSIKLEMDQPVDLTFGAKYLLDIIKGSSLSDRVGIRLSSEAPALFQFDLKSGFLQFFLAPKFNDEE
# modifications: left off: Gal4 activation domain, end not stated, kept
# B2: pol30-Rad27L2: PCNA mutant evolved for Rad27, two-residue deletion, IDCL sequence D––VDTLKITEL (protein)
# chain: B1 chain with I123T, G127T
# modifications: left off: Gal4 activation domain, end not stated, kept
# B3: pol30-Rad27E31: PCNA mutant evolved for Rad27, IDCL sequence DGDYDVLKIREL (protein)
# chain: MLEAKFEEASLFKRIIDGFKDCVQLVNFQCKEDGIIAQAVDDSRVLLVSLEIGVEAFQEYRCDHPVTLGMDLTSLSKILRCGNNTDTLTLIADNTPDSIILLFEDTKKDRIAEYSLKLMDGDYDVLKIRELQYDSTLSLPSSEFSKIVRDLSQLSDSINIMITKETIKFVADGDIGSGSVIIKPFVDMEHPETSIKLEMDQPVDLTFGAKYLLDIIKGSSLSDRVGIRLSSEAPALFQFDLKSGFLQFFLAPKFNDEE
# modifications: left off: Gal4 activation domain, end not stated, kept
# Assays:
# [1] = test system: Msh6; assay: Yeast two hybrid (Y2H) analysis of PCNA-partner interaction; assay type: binding; details: YRG2 strain, growth on selective agar plates lacking histidine; growth similar to WT PCNA denoted as 1
# Experimental: (§1) For the Y2H assay, we used the YRG2 host strain, shown to be highly efficient in coupling the strength of protein-protein interactions with growth on media lacking histidine. Selected PCNA mutants were characterized for their ability to bind each of 12 main PCNA partners to obtain specificity profiles (Table 1, Table S1, and Figures S4–S5). […] However, in some cases a strong trade-off between the bindings of different partners was observed.
# (§2) Y2H analysis was performed using the Yeast Two Hybrid Phagemid vector kit (Stratagene), following the manufacturer's instructions. The pAD-PCNA-WT/mutant plasmids were used as bait while plasmids encoding 12 different PCNA partners (Table 1 and Table S1) were used as prey. The YRG2 host strain (Stratagene) was cotransformed with pAD-PCNA WT/mutant and pBD-partner plasmids in all possible combinations using the LiAC method. Single transformants were grown in liquid SC-Leu-Trp to O.D600 10, washed twice with DDW, and diluted to an initial OD600 of 0.3. A series of 10-fold serial dilutions was then spotted onto selective SC-Leu-Trp-His plates and incubated at 30°C for 3 d. For quantitative Y2H, the generation time of the indicated mutants and their respective partners were calculated from their growth curves in liquid SC-Leu-Trp-His media. Cells were grown overnight in SC-Leu-Trp, washed twice with ddH2O, and diluted by a factor of 1∶50 into 10 ml of pre-warmed SC-Leu-Trp-His. O.D600 measurements of the cultures were taken at the indicated time; the generation time (τ) was calculated from the growth curves according to the equation ODt = OD0×2^t/τ. The generation time calculated for each culture is an average of at least 3 independent experiments.
# [2] = test system: Pol32; assay: as above; assay type: binding; details: YRG2 strain, growth on selective agar plates lacking histidine; growth similar to WT PCNA denoted as 1
# Experimental: as §1, §2
# [3] = test system: Rad27; assay: as above; assay type: binding; details: footnote c: generation time in liquid selective media lacking histidine relative to cells expressing WT PCNA; average of at least 3 independent experiments
# Experimental: as §1, §2
# [4] = test system: Ung1; assay: as above; assay type: binding; details: YRG2 strain, growth on selective agar plates lacking histidine; growth similar to WT PCNA denoted as 1
# Experimental: as §1, §2
# [5] = test system: Apn2; assay: as above; assay type: binding; design: key: ++: major increase in growth; +: moderate increase in growth; similar growth as the WT PCNA-expressing cells; -: minor decrease in growth; --: moderate decrease in growth; ---: major decrease in growth; details: spotting onto selective agar plates; PCNA fused to AD, partner to BD
# Experimental: as §2
# (§3) Table S1: Yeast two hybrid analysis of binding of selected PCNA mutants with seven additional partners not described in Table 1 of the main text. […]
# (§4) pol30-Rad30E2 WT WT WT WT WT WT - pol30-Rad30E9 WT WT WT WT WT WT WT pol30-Rad27E6 WT WT WT WT + WT WT pol30-Rad27E31 WT WT WT WT + WT WT pol30-Rad27L1 WT -- WT WT -- WT WT pol30-Rad27L2 WT -- WT WT -- WT WT pol30-Pol32E5 WT WT WT WT WT WT WT pol30-Pol32E9 - WT WT WT WT WT WT pol30-Msh6E2 WT WT + WT WT WT WT pol30-Msh6E6 WT WT ++ WT WT WT WT pol30-Ung1E3 WT - WT WT WT WT WT pol30-79 --- --- --- - --- --- --- a PCNA mutants with enhanced affinities for the different target partners (see Table 1, text). b PCNA mutants were fused to the activating domain (AD), while the different partners were fused to the DNA-binding domain (BD). The growth of the resulting Y2H strains was compared to the growth of the WT PCNA-expressing strain following spotting onto selective agar plates (see Material and Methods). Growth rates on the agar plates were scored and tabulated as follows: ++ major increase in growth; + moderate increase in growth; WT-similar growth as the WT PCNA-expressing cells; - minor decrease in growth; -- moderate decrease in growth; --- major decrease in growth. ND-Not determined.
# [6] = test system: Cac1; assay: as above; assay type: binding; design: key: ++: major increase in growth; +: moderate increase in growth; similar growth as the WT PCNA-expressing cells; -: minor decrease in growth; --: moderate decrease in growth; ---: major decrease in growth; details: spotting onto selective agar plates; PCNA fused to AD, partner to BD
# Experimental: as §2, §3, §4
# [7] = test system: Cdc9; assay: as above; assay type: binding; design: key: ++: major increase in growth; +: moderate increase in growth; similar growth as the WT PCNA-expressing cells; -: minor decrease in growth; --: moderate decrease in growth; ---: major decrease in growth; details: spotting onto selective agar plates; PCNA fused to AD, partner to BD
# Experimental: as §2, §3, §4
# [8] = test system: Eco1; assay: as above; assay type: binding; design: key: ++: major increase in growth; +: moderate increase in growth; similar growth as the WT PCNA-expressing cells; -: minor decrease in growth; --: moderate decrease in growth; ---: major decrease in growth; details: spotting onto selective agar plates; PCNA fused to AD, partner to BD
# Experimental: as §2, §3, §4
# [9] = test system: Msh3; assay: as above; assay type: binding; design: key: ++: major increase in growth; +: moderate increase in growth; similar growth as the WT PCNA-expressing cells; -: minor decrease in growth; --: moderate decrease in growth; ---: major decrease in growth; details: spotting onto selective agar plates; PCNA fused to AD, partner to BD
# Experimental: as §2, §3, §4
# [10] = test system: Rfc1; assay: as above; assay type: binding; design: key: ++: major increase in growth; +: moderate increase in growth; similar growth as the WT PCNA-expressing cells; -: minor decrease in growth; --: moderate decrease in growth; ---: major decrease in growth; details: spotting onto selective agar plates; PCNA fused to AD, partner to BD
# Experimental: as §2, §3, §4
# [11] = test system: Rrm3; assay: as above; assay type: binding; design: key: ++: major increase in growth; +: moderate increase in growth; similar growth as the WT PCNA-expressing cells; -: minor decrease in growth; --: moderate decrease in growth; ---: major decrease in growth; details: spotting onto selective agar plates; PCNA fused to AD, partner to BD
# Experimental: as §2, §3, §4
# [12] = test system: yeast strains; assay: Viability of haploid strains with mutant as sole source of PCNA (plasmid shuffling, 5FOA); assay type: cell-based; details: for viability of strain containing the mutant as the sole source of PCNA: plasmid shuffling, selection on 5FOA; for effect of rad27 deletion on lethality of the mutant strain: rad27-deleted background, 5-FOA
# Excerpt: To study the in vivo ability of PCNA mutants to promote DNA replication and repair in yeast, we adopted a plasmid shuffling method to create haploid yeast strains carrying each mutant as the sole source of PCNA (see Materials and Methods). This approach allowed us to identify PCNA mutants leading to cell death, indicating their inability to support essential DNA replication processes (Figure 5A). […] To verify that the replication defects in the mutant strains (Figure 5) are not due to reduced expression levels of the PCNA proteins, we confirmed the expression level of PCNA using western blot analysis and observed similar expression levels of all PCNA mutants, relative to WT PCNA (Figure S7).
# Figure 5 In vivo phenotypic analysis of PCNA mutants. (A) Non-viable strains containing PCNA mutants with increased binding affinity for Rad27 as the sole version of PCNA. Yeast strains containing WT PCNA expressed from a URA3 plasmid and mutant PCNA genes expressed from a LEU2 plasmid are viable (middle). Upon selection for loss of WT PCNA using 5-floororotic acid (5FOA), PCNA mutant strains are non-viable (right). (B) MMS (middle) and HU (right) sensitivity of strains containing PCNA mutants with increased binding affinity for Rad27, Pol32, Rad30, Msh6, and Ung1 and strains containing WT PCNA in which the same partners were deleted. For binding characterization and sequences of the mutants, see Table 1.
# Novel haploids containing PCNA mutants were generated using the plasmid shuffling method. Briefly, a pol30::KanMX magic marker heterozygote diploid strain BY4743 (Open Biosystem) was transformed with plasmid pRS316-POL30. Following dissection of the diploid, a haploid containing the CAN+ gene and plasmid pRS316-POL30 as a sole source of PCNA was generated. This host strain was transformed with selected pRS315-pol30 mutants, plated on SC-Ura-Leu plates, followed by replica plating to SC-Leu+5FOA plates. Haploids, containing PCNA mutants as a sole source, were further verified by plating on either SC-Leu or SC-Ura plates. For testing selected PCNA mutants, a haploid containing rad27::HYG, rad30::HYG, pol32::HYG, msh6::HYG, or ung1::HYG were generated using plasmid pAG32 by conventional genetic approaches. Growth of the PCNA mutant strains in the presence of 120 mM HU (Toronto Research Chemicals) or 0.02% MMS (Sigma) was performed as described. To examine the effects of partner overexpression on pol30 mutant strains, these strains were transformed with various plasmids containing GST-tagged PCNA partner encoding genes under the control of a GAL1/10 inducible promoter, as previously described. Overnight cultures were plated in serial dilutions on SC-Ura containing either glucose or galactose with or without DNA-damaging agents, as described above.
# [13] = test system: Rad30; assay: Yeast two hybrid (Y2H) analysis of PCNA-partner interaction; assay type: binding; details: YRG2 strain, growth on selective agar plates lacking histidine; growth similar to WT PCNA denoted as 1
# Experimental: as §1, §2
Molecule,Binding of PCNA Mutants to Target Partners: Msh6 (Y2H) [1],Binding of PCNA Mutants to Target Partners: Pol32 (Y2H) [2],"Binding of PCNA Mutants to Target Partners: Rad27, fold increase or decrease (quantitative Y2H) [3]",Binding of PCNA Mutants to Target Partners: Ung1 (Y2H) [4],Y2H growth relative to WT PCNA-expressing strain: Apn2 [5],Y2H growth relative to WT PCNA-expressing strain: Cac1 [6],Y2H growth relative to WT PCNA-expressing strain: Cdc9 [7],Y2H growth relative to WT PCNA-expressing strain: Eco1 [8],Y2H growth relative to WT PCNA-expressing strain: Msh3 [9],Y2H growth relative to WT PCNA-expressing strain: Rfc1 [10],Y2H growth relative to WT PCNA-expressing strain: Rrm3 [11],viability of strain containing the mutant as the sole source of PCNA [12],effect of rad27 deletion on lethality of the mutant strain [12],Binding of PCNA Mutants to Target Partners: Rad30 (Y2H) [13]
B1,1,1,1.7 ^c fold,1,WT,--,WT,--,WT,WT,WT,lethality,suppressed the lethality,
B2,1,1,1.5 ^c fold,1,WT,--,WT,--,WT,WT,WT,lethality,suppressed the lethality,
B3,1,1,1.5 ^c fold,1,WT,+,WT,WT,WT,WT,WT,,,1
